In PMC5648539:

Molecular target: FLAG-tagged human CXCR4, wild type (human) (UniProt P61073)
Sequence (P61073 whole entry): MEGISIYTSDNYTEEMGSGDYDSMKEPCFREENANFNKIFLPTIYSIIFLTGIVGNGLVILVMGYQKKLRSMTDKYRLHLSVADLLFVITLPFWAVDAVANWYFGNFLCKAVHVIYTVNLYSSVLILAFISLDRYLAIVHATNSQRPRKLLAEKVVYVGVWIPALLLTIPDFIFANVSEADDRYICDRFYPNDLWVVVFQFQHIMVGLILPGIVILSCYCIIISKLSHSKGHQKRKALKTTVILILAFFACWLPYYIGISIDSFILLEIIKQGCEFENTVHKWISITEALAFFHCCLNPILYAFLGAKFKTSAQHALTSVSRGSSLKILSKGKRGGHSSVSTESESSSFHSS

Substance | Ca2+ flux dose response (printed as Kd) [µM] | Ca2+ flux response (potency) [µM]
CXCL12 with Asn33 mutated to glutamic acid (from UniProt P48061-2 22-89) (ligand) | 0.021 | 
CXCL12(R8A) (from UniProt P48061-2 22-89) (ligand) |  | 0.11
CXCL12(R12A) (from UniProt P48061-2 22-89) (ligand) |  | 0.095
